According to publication PMC6793842 (2019):

B1: human basigin, entire ectodomain (receptor)
chain: EPGTVFTTVEDLGSKILLTCSLNDSATEVTGHRWLKGGVVLKEDALPGQKTEFKVDSDDQWGEYSCVFLPEPMGTANIQLHGPPRVKAVKSSEHINEGETAMLVCKSESVPPVTDWAWYKITDSEDKALMNGSESRFFVSSSQGRSELHIENLNMEADPGQYRCNGTSSKGSDQAIITLRVRSHLAAL
modifications: biotin (enzymatic monobiotinylation; site not stated)
B2: chimpanzee basigin, entire ectodomain (receptor)
chain: ASGAAGTVFTTVEDLGSKILLTCYMNDSATEVTGHRWLKGGVVLEEDALPGQKTEFKVDSDDQWGEYSCVFLPEPMGTANIQLHGPPRVKAVKSSEHINEGETAVLVCKSESVPPVTDWAWYKITDSGDKALMNGSESRFFVSSLQGRSELHIENLNMEADPGQYRCNGNSSEGSDQAVITLRVRSHLA
modifications: biotin (enzymatic monobiotinylation; site not stated)
B3: P. reichenowi RH5 (ligand)
chain: MIRIKKKIILSILYIHLFILNSLSFENAKKKTKNQENNLTLLPIKSSEEEKSNIKHKDIGNVNKDDINNDIDNDKKDVKISNVKDHSTYIKSYLNKNVNDGLKYLFMPSHNAYIKKYSLFNKMNNDMLLNEKKDVNNNKEDDKNINHKNVNFLQNDFKGLPKNNIADSIDIVQDKEGHLDFIIIPYYSHVEYCKHLSIISVFHRLSTYGEYKDVIAFVKNINEKYDKVKDKCNEIKNDLITTIKKLENPHDVNNKNEDSNIYNTFEDIDDIYEDDMQDQLEYVYDTIEDADSDNTHPNKKKYHLINRTYKKMMDEYNLKKNKLIQCIKNNEPDFNNIYMDIKNYSTNRFENISCDNINFCNTNGIKNHYIYYIEKEMLAIKSKDLNKDIKDMTSILQQSELLLINLNKKMGSYIYIDTIKFIHKEMKYIFKRIEHHTNIIIDKIKIIDDKYKISINKTFPKNILLPKILDLSNEYALFITSSTLRQMLYNTFYTKEKHLHNLFHHLIYVLQIKFNDVPVHMEYFPLYKKKKILTQ
B4: gorilla basigin, entire ectodomain (receptor)
chain: ASGAAGTVLTTVEELGSKILLTCSLNDSATEVTGHRWLKGGVVLKEDALPGQKTEFEVDSDDQWGEYSCVFLPEPMGTANIQLHHGPPRVKAVKLSEHINEGETAVLACKSESVPPVTDWAWYKITDSGDKALTNGSESRFFVSSSQGRSELYIENLNMEADPGQYRCNGTSSKGSDQAVITLRVRSHLA
modifications: biotin (enzymatic monobiotinylation; site not stated)

Columns and labels:
Experiment in all cases: SPR
P. adleri RH5 = P. adleri RH5 (P. adleri)
P. praefalciparum RH5 = P. praefalciparum RH5 (P. praefalciparum)
P. gaboni RH5 = P. gaboni RH5 (P. gaboni)
P. billcollinsi RH5 = P. billcollinsi RH5 (P. billcollinsi)
[1] = biological target: B2
[2] = biological target: introgressed ancestral RH5 (reticulocyte-binding protein homologue 5) (calculated ancestor; parent sequence P. …, UniProt Q8IFM5 25-526, H200)

Row | Binder | Kd (P. adleri RH5) | Kd (P. praefalciparum RH5) | also measured
1 | B1 | 3100 nM | 1900 nM | Kd (P. gaboni RH5): 3600 nM
2 | B2 | – | – | Kd (P. billcollinsi RH5): 1800 nM
3 | B3 | – | – | Kd [1]: 4300 nM
4 | B4 | 1000 nM | 2500 nM | Kd [2]: 3000 nM
